{"source": "paper PMC8341956", "target": "nucleosome core particle (recombinant Xenopus laevis histone octamer on 147 bp 601 DNA) (Xenopus laevis)", "experiment": "native gel or EMSA; as the gel shift with nucleosome cores (50 nM), at higher concentrations of HMGN1 (methods: 2-800 nM); ESI Fig. S9.3"}
{"substance": "full-length recombinant HMGN1 (HMGN1_1–99, unmodified) (natural protein)", "values": [{"measurement": "stoichiometry N (HMGN1 molecules per nucleosome)", "value": "> 2"}]}
